This note sets out measurements from patent publication US20240293459A1 (published 2024).

Holding throughout (test): multimer staining
The target of experiment [1] is T1, SARS-CoV-2 NSP13 helicase; peptide NSP13-242 peptide on HLA-A*02:01 (human).
T1 peptide: TLVPQEHYV

Experiment [2] addresses SARS-CoV-2 NSP13 helicase; peptide NSP13-448 peptide on HLA-A*01:01 (human).
Experiment [3] concerns the target T2, SARS-CoV-2 NSP13 helicase; peptide NSP13-400 peptide on HLA-A*24:02 (human).
T2 peptide: VYIGDPAQL

B1: NSP13-242 TCR (TCR, V domains shown)
Valpha: AQTVTQSQPEMSVQEAETVTLSCTYDTSENNYYLFWYKQPPSRQMILVIRQEAYKQQNATENRFSVNFQKAAKSFSLKISDSQLGDTAMYFCAFMNSNNARLMFGDGTQLVVKP
Vbeta: DAGITQSPRYKITETGRQVTLMCHQTWSHSYMFWYRQDLGHGLRLIYYSAAADITDKGEVPDGYVVSRSKTENFPLTLESATRSQTSVYFCASSPGSVPGGYTFGSGTRLTVV
For B1, the binding result in experiment [1] is “recognises”.

B2: NSP13-448 TCR (TCR, V domains shown)
Valpha: AQSVTQLGSHVSVSEGALVLLRCNYSSSVPPYLFWYVQYPNQGLQLLLKYTSAATLVKGINGFEAEFKKSETSFHLTKPSAHMSDAAEYFCAVSNSGGGADGLTFGKGTHLIIQP
Vbeta: DGGITQSPKYLFRKEGQNVTLSCEQNLNHDAMYWYRQDPGQGLRLIYYSQIVNDFQKGDIAEGYSVSREKKESFPLTVTSAQKNPTAFYLCASSIMAGGHGELFFGEGSRLTVL
Take B2: the binding result in experiment [2] is listed as “recognises”.

B3: NSP13-400 TCR (TCR, V domains shown)
Valpha: RKEVEQDPGPFNVPEGATVAFNCTYSNSASQSFFWYRQDCRKEPKLLMSVYSSGNEDGRFTAQLNRASQYISLLIRDSKLSDSATYLCVVKDSWGKLQFGAGTQVVVTP
Vbeta: DARVTQTPRHKVTEMGQEVTMRCQPILGHNTVFWYRQTMMQGLELLAYFRNRAPLDDSGMPKDRFSAEMPDATLATLKIQPSEPRDSAVYFCASGPSGGWNTIYFGEGSWLTVV
As for B3, the binding result in experiment [3] is given as “recognises”.
